Consider one molecule from PMC4720525.

The target in the data set is YY1 (Mus musculus, UniProt Q00899 1-414). Briefly: EMSA. A general note: A gel shift assay detects complexes by their altered migration in electrophoresis.
Chain of YY1 (Q00899 whole entry): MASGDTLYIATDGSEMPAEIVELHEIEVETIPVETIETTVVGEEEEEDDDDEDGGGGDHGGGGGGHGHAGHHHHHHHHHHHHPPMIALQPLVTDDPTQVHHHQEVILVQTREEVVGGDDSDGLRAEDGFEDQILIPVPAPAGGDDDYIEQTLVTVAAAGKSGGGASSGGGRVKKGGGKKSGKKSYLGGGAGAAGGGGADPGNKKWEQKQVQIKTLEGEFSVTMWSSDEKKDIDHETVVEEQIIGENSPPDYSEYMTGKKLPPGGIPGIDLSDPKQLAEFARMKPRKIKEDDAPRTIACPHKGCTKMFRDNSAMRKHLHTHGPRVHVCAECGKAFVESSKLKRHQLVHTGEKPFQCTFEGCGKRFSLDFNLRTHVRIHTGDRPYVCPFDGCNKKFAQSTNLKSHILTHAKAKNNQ

B1: Arid1a promoter 30-bp DNA (dsDNA)
DNA 1: CTCTTCTCTCTTAAAATGGCTGCCTGTCTG
DNA 2: CAGACAGGCAGCCATTTTAAGAGAGAAGAG
On to B1, for which the binding result is recorded as “binds”.
